Experimental data taken from patent publication US9586995B2, “Compositions and methods of use for (pro)renin receptor” (University of Utah, priority 2012, dated 2017).
Values belong to the molecule of their own block, whether it stands above or below them.

Assays:
ENaC = ENaC activity (Ieq, amiloride-sensitive current) in mpkCCD cells; assay type: cell-based; conditions: for acute activation of ENaC by prorenin / second (chronic) phase of prorenin-increased sodium transport / ENaC activity: prorenin 10 nM; for acute activation of ENaC by prorenin: PRO20 1.5 μM, losartan 1.0 μM, apocynin 1 mM, eplerenone 10 mg/L; for second (chronic) phase of prorenin-increased sodium transport / ENaC activity: 6 h to 24 h; for Ieq: 10 nM for 5 min, control group 1.17+0.05
Procedure: FIGS. 32A-H show the role of PRR in the acute regulation of ENaC activity in cultured CD cells. Confluent mpkCCD cells grown on Transwell membrane were pretreated for 30 min with PRO20 (1.5 μM), losartan (1.0 μM), apocynin (1 mM), or eplerenone (10 mg/L) and then treated with AngII (500 nM) or prorenin (10 nM). Ieq was measured by using EVOM and amiloride-sensitive Ieq was determined at the end of experiments. (A) Time course of Ieq changes in control, AngII, and AngII+PRO20 groups. (B) Amiloride-sensitive Ieq measured at 5 min for experiments in (A). (C) Time course of Ieq changes in control, prorenin, and prorenin+PRO20 groups. (D) Amiloride-sensitive Ieq measured at 5 min for experiments in (C). (E) Time course of Ieq changes in control, prorenin, and prorenin+losartan groups. (F) Amiloride-sensitive Ieq measured at 5 min for experiments in (E). (G) Amiloride-sensitive Ieq measured at 5 min in control, prorenin, and prorenin+apocynin groups. (H) Amiloride-sensitive Ieq measured at 5 min in control, prorenin, and prorenin+eplerenone groups. N=6-12 per group. Data are means±SE.
FIGS. 33A-D show the role of PRR in chronic regulation of ENaC by prorenin in cultured CD cells. (A) Time course of Ieq changes in control, prorenin, prorenin+PRO20, and prorenin+losartan groups over 24 h in mpkCCD cells. (B) Time course of changes in Ieq during 24-h aldosterone treatment in mpkCCD cells. (C) Amiloride-sensitive Ieq in mpkCCD cells after exposure for 24 h to 10 nM prorenin in presence or absence of eplerenone. (D) Medium aldosterone concentration in primary rat IMCD cells exposed for 24 h to 10 nM prorenin alone or in combination with 1.5 μM PRO20 or 1.0 μM losartan.
Electrophysiology experiments were performed on the immortalized mpkCCD cells once the cell monolayers reached confluence. The transepithelial voltage (Vte) and resistance (Rte) across cell monolayers were measured with an epithelial volt-ohmmeter (World Precision Instruments). The transepithelial current was calculated according to Ohm's law, Ite=Vte/Rte, and normalized by the surface area of the insert. AngII (500 nM) or prorenin (10 nM) was added to the apical side of the inserts, and amiloride (10 μM) was added at the end of experiments to calculate amiloride-sensitive sodium current as the difference between total current and amiloride-insensitive current.

PRR [1] = assay: ICV infusion pressor response in WT and neuron-specific PRR knockout (Nefh-PRR) mice, telemetry; assay type: in vivo, mouse; conditions: for ΔMAP, pressor response to ICV infusion: Nefh-PRR mice, ICV 100 ng/ul at 0.3 ul/minute for 10 minutes
Procedure: (§1) FIG. 6 is a series of graphs illustrating the pressor response to intracerebroventricular (ICV) infusion of carbachol (FIG. 6A), Ang II (FIG. 6B), renin (FIG. 6C), and prorenin (FIG. 6D) in wild-type (WT) and Nefh-PRR mice. WT and Nefh-PRR mice were implanted with telemetric transmitters and ICV cannula. Two weeks after recovery, mice were ICV infused (0.3 μl/min) with carbachol (100 ng/μl), Ang II (100 ng/μl), Ang II (100 ng/μl), +losartan (10 ng/μl), mouse renin (100 ng/μl), mouse prorenin (100 ng/μl), or mouse prorenin (100 ng/μl) +losartan (10 ug/μl) over 10 minutes. Blood pressure (BP) was recorded in conscious freely moving mice. *P<0.05 vs. WT.
(§2) Neuron-specific PRR knockout mice (Nefh-PRR) and wildtype (WT) littermates (N=5/group) were each implanted with a telemetric probe for blood pressure (BP) recording and an intracerebroventricular (ICV) cannula for infusion of mouse prorenin (100 ng/ul), mouse renin (100 ng/ul), or an Ang II type 1 receptor (AT1R) blocker (losartan, 10 ug/ul) at 0.3 ul/minute for 10 minutes. Mouse prorenin infusion increased the BP (mmHg) in WT mice (ΔMAP: 41±5); however, the prorenin induced pressor response was abolished in Nefh-PRR mice (ΔMAP: 5±1).

PRR [2] = molecular target: T1, PRR (Mus musculus, UniProt Q9CYN9); assay: Prorenin-induced pressor response with ICV PRR antagonist peptides in C57BI/6J mice; assay type: in vivo; set-up: from tissue; host or cells: brain of living C57Bl/6J mice (ICV infusion); conditions: ICV mouse prorenin 100 ng/ul alone or with peptide 45 ng/ul, 0.3 ul/minute for 10 minutes
Procedure: C57BI/6J mice (N=5/group) were each implanted with a telemetric probe for BP recording and an intracerebroventricular (ICV) cannula for infusion of mouse prorenin (100 ng/ul), PR10, or PR20 (45 ng/ul) at 0.3 ul/minute for 10 minutes. Mouse prorenin infusion increased the BP (mmHg) in WT mice (ΔMAP: 31.3±1.1); however, the prorenin-induced pressor response was abolished in either PR10 (ΔMAP: 16.9±4.4 vs. prorenin) or PR20 (ΔMAP: 12.7±0.5 vs. prorenin) infused mice.

PRR [3] = molecular target: T1, PRR; assay: ICV infusion pressor response in WT and neuron-specific PRR knockout (Nefh-PRR) mice, telemetry; assay type: in vivo; set-up: Neuron-specific PRR knockout mice (Nefh-PRR) and wildtype (WT) littermates (N=5/group) were each implanted with a telemetric probe; from tissue; host or cells: brain of living WT and Nefh-PRR mice (ICV infusion); conditions: WT mice; ICV 100 ng/ul at 0.3 ul/minute for 10 minutes
Procedure: as §1, §2

T1 sequence (Q9CYN9 18-350): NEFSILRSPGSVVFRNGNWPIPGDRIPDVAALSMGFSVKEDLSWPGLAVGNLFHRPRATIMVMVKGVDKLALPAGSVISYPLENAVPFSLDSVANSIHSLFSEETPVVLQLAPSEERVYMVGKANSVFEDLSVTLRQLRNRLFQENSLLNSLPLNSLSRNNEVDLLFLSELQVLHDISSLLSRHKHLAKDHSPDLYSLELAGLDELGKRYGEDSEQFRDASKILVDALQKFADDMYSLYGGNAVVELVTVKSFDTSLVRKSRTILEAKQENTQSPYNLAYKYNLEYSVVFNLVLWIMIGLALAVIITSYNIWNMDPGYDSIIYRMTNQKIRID

Molecule: COc1cc(C(C)=O)ccc1O [apocynin]
acute activation of ENaC by prorenin (ENaC): completely abolished

Molecule: COC(=O)[C@@H]1CC2=CC(=O)CC[C@]2(C)[C@@]23O[C@@H]2C[C@@]2(C)[C@@H](CC[C@@]24CCC(=O)O4)[C@H]13 [eplerenone]
second (chronic) phase of prorenin-increased sodium transport / ENaC activity (ENaC): effectively blocked | acute activation of ENaC by prorenin (ENaC): unaffected

Molecule: CCCCc1nc(Cl)c(CO)n1Cc1ccc(-c2ccccc2-c2nn[nH]n2)cc1 [losartan]
pressor response induced by prorenin or renin (PRR [1]; ICV losartan 10 ug/ul): completely blocked | second (chronic) phase of prorenin-increased sodium transport / ENaC activity (ENaC): not | acute activation of ENaC by prorenin (ENaC): not

ΔMAP, prorenin-induced pressor response (PRR [2]): 16.9±4.4 mmHg
Molecule: IFDNIISQGVLKEDVF (PRR antagonist PR10)

ΔMAP, prorenin-induced pressor response (PRR [2]): 12.7±0.5 mmHg
Molecule: LPTDTTTFKRIFLKRMPSI (PRR antagonist) [PR20]

Molecule: renin
Ieq (ENaC): 1.58+0.19 μA/cm2

B1: mouse renin: mouse renin, infused ICV (protein, UniProt P06281 72-402, looked up)
Renin-1: SPVVLTNYLNTQYYGEIGIGTPPQTFKVIFDTGSANLWVPSTKCSRLYLACGIHSLYESSDSSSYMENGSDFTIHYGSGRVKGFLSQDSVTVGGITVTQTFGEVTELPLIPFMLAKFDGVLGMGFPAQAVGGVTPVFDHILSQGVLKEEVFSVYYNRGSHLLGGEVVLGGSDPQHYQGNFHYVSISKTDSWQITMKGVSVGSSTLLCEEGCAVVVDTGSSFISAPTSSLKLIMQALGAKEKRIEEYVVNCSQVPTLPDISFDLGGRAYTLSSTDYVLQYPNRRDKLCTLALHAMDIPPPTGPVWVLGATFIRKFYTEFDRHNNRIGFALAR
ΔMAP, pressor response to ICV infusion (PRR [1]): 27±2 mmHg | ΔMAP, pressor response to ICV infusion (PRR [3]): 31±5 mmHg

ΔMAP, prorenin-induced pressor response (PRR [2]): 31.3±1.1 mmHg
B2: mouse prorenin: mouse prorenin, ligand of PRR, infused ICV (protein)
chain: LPTRTATFERIPLKKMPSVREILEERGVDMTRLSAEWGVFTKRPSLTNLTSPVVLTNYLNTQYYGEIGIGTPPQTFKVIFDTGSANLWVPSTKCSRLYLACGIHSLYESSDSSSYMENGSDFTIHYGSGRVKGFLSQDSVTVGGITVTQTFGEVTELPLIPFMLAKFDGVLGMGFPAQAVGGVTPVFDHILSQGVLKEEVFSVYYNRGSHLLGGEVVLGGSDPQHYQGNFHYVSISKTDSWQITMKGVSVGSSTLLCEEGCAVVVDTGSSFISAPTSSLKLIMQALGAKEKRIEEYVVNCSQVPTLPDISFDLGGRAYTLSSTDYVLQYPNRRDKLCTLALHAMDIPPPTGPVWVLGATFIRKFYTEFDRHNNRIGFALAR
ΔMAP, pressor response to ICV infusion (PRR [1]): 5±1 mmHg | ΔMAP, pressor response to ICV infusion (PRR [3]): 41±5 mmHg

B3: prorenin: prorenin added at 10 nM to mpkCCD cells; species not stated (protein)
chain: B2 chain
Ieq (ENaC): 3.16+0.07 μA/cm2
